Experimental data published in paper PMC9907207 (Nature Communications, 2023).
Where two headings read alike, the source gives them in different places.

B1: GAR07 (antibody, V domains shown)
VH: EVQLVQSGGGLVQPGGSLRLSCAASEFIVSSNYMSWVRQAPGKGLEWVSVIYSGGSTFYADSVKGRFTISRDNSKNTLHLQMNSLRVEDTAVYYCARDRGDRFDYWGQGTLVTVSS
VL: not shown
B2: GAR16 (antibody, V domains shown)
VH: EVQLVESGGGVVQPGGSLRLSCAASGFTFSNYDMHWVRQATGKGLEWVSAIGTAGDTYYPDSVKGRFTISRDNAKNSLYLQMNSLRAEDTAVYYCTRVVHSSDWTSWSAGIHNWFDSWGQGTLVTVSS
VL: DIVMTQSPSSLSASVGDRVSITCRTSQSIRTYLNWYQQKPGKAPKLLIYASSSLQSGVPSRFSGSGSGTDFTLSISSLQPEDFATYYCQQSYSMPPWTFGQGTKLEIK
B3: GAR04 (antibody, V domains shown)
VH: QVQLVQSGAEVKKSGASVKVSCKASGYTFTGYHMHWVRQAPGQGLEWMGWINPKSDGTNSAQKFQGRVTMTRDTSISTAYMELSRLRSDDTAVYYCARLAVREYYDNSGFYRKTTDAFDLWGQGTMVTVSS
VL: DIVMTQSPDSLAVSLGERATINCKSSQSVLYNSNNKNYLAWYQQKPGQPPKLLIYWASTRESGVPDRFSGSGSGTDFTLTINSLQAEDVAVYYCQQYSITTPPITFGQGTRLEIK
B4: GAR05, human IgG1 monoclonal antibody (antibody, V domains shown)
VH: EVQLVQSGGDLVQPGGSLRLSCAVSGFTVSRNYMTWVRQAPGRGLEWVSLIYPGGSAFYADSVKGRFTISRDNSKNTLYLQMNSLRVEDTAVYYCARDPVSTGHYHDSDYWGQGTLVTVSS
VL: DIQMTQSPSALSASVGDRVTITCQASQDINKFLNWYQQKPGKAPKLLIYDASNLETGVPSRFSGGGSGTDFTFTISSLQPEDIATYYCHQYDNLPRTFGQGTKVELK
notes: source: ExpiCHO, purified (Protein G resin)
B5: GAR12 Fab (Fab, V domains shown)
VH: EVQLVQSGGGLVQPGGSLRLSCAASGFTFSSYAMSWVRQAPGKGLEWVLSISGSGGSTYYADSVKGRFTISIDNSKKTVYLQMNSLRAEDTAVYYCAKSGEQQLVQAEYFHHWGQGTLVTVSS
VL: DIQMTQSPSTLSASVGDRVTITCRASQSIGRWLAWYQQKPGKAPKLLIYDASSLESGVPSRFSGSGFGTEFTLTISSLQPDDFATYYCQQCDSLLTFGGGTKLEIK
notes: also called GAR12 Fab fragment; source: ExpiCHO, purified (Talon resin, S200 SEC)
B6: GAR12, human IgG1 monoclonal antibody (antibody, V domains shown)
VH: B5 VH
VL: B5 VL
notes: as for B4
B7: GAR01 (antibody, V domains shown)
VH: QVQLVQSEGGVVQPGRSLRLSCTASGFTFSSYGMHWVRQAPGKGLEWVALISYDGSDKYYADSVKGRFTISRDNSKNTLYLQMNSLRPEDTAVFYCAKGGWYGSSSGFDYWGQGTLVTVSS
VL: DIQMTQSPSSLSASVGDRVTITCQASQDISNYLNWYQQKPGKAPKLLIYDASNLETGVPSRFSGSGSGTDFIFTISSLQPEDIATYYCQQYHDVPRTFGQGTKVEIK
B8: 10G4 Fab (Fab, V domains shown)
VH: QVQLVESGGGVVQPGRSLRLSCAASGFTFSSYGMHWVRQAPGKGLEWVAVIWYDGSDKYYADSVKGRFTISRDNSKNTLYLQINSLRAEDTAMYYCAREATAGFDYWGQGNLVTVSS
VL: NIQMTQSPSAMSASVGDRVTITCRARQDISSYLAWFQQKPGKVPKHLIYAASTLLSGVPSRFSGSGSGTEFTLTISSLQPEDFATYYCLQHNSYPYTFGQGTKLEIN
notes: also called additional antibody Fab (10G4)
B9: GAR17 (antibody, V domains shown)
VH: EVQLVESGGGLGQPGGSLRLSCAASGFNFSNYAMSWVRQAPGKGLEWISTVGGSGDSTYYADSVKGRFTISIDNSKNRLYLQMNSLRSEDTAVYYCAKELAVMPPYFYYYAMDVWGQGTTVTVSS
VL: QPVLTQPPSASGTPGQRVTISCSGTTSNVGSTYVYWYQQLPGTAPKLLIYRYNQRPSGVPDRFSGSKSGTSASLVISGLRSDDEAVYYCATWDDSRHVVFGGGTKLTVL
B10: GAR11 (antibody, V domains shown)
VH: EVQLVQSGTEVKKPGSSVKVSCEASGGTFSKYAITWVRQAPGQGLEWMGGIIPIFGTANYAQKFQDRVKITADEITSIAYMELNSLSSEDTAVYYCARDNRGRGFGEILSYYYGMDVWGQGTTVTVSS
VL: SALTQPASVSGSPGQSITISCTGTSSDVGGYNYVSWYQQHPGKAPKLMIYDVATRPSGVSDRFSGSKSGNTASLTISGLQAEDEADYYCSSYTSSNTLAFGGGTKLTVL
B11: GAR18 (antibody, V domains shown)
VH: QVQLQESGPGLVKPSETLSLTCTVSGGSISDYYWSWIRQPPGKGLEWIGYIHGSGGTNYNPSLKSRVTILVDTSKNELSLKLSSVTTADTAVYYCARDDMISGLGYYGMDVWGQGTTVTVSS
VL: EIVMTQSPATLSLSPGERVTLSCRASQSVSSYLAWYQQKPGQAPRLLIYDASNRATGIPARFSGSGSGTDFTLTISSLEPEDFAVYYCQQRSNWPSTFGPGTKVDIK
B12: GAR13 (antibody, V domains shown)
VH: EVQLVESGGGLVQPGGSLRLSCAASGFTFSNYDMHWVRQVTGKGLEWVSLIGTSGDTYYPGSVKGRFTISRDNAKNSLYLQMNSLRADDTAVYYCVRAAFDDHNIYSWFDSWGQGTLVTVSS
VL: DIQMTQSPSSLSASVGDRVTITCRASQSIGRYLNWYQQKPGKAPKLLIYTASSLQSGVPSRFSGSGSGTEFTLTISSLQPEDFATYYCQQSYNIPPLTFGGGTKVEIK
B13: GAR06 (antibody, V domains shown)
VH: QVTLRESGPALVKPTQTLTLTCTFSGFSVSSAGMCVSWIRQPPGKALEWLARIDWDDDKYYSTSLRTRLTISTDTSKNQVVLTMTNMDPVDTATYYCARTTMTTSYYFDSWGQGTLVTVSS
VL: QSALTQPRSVSGSPGQSVTISCTGTSSDVGGYDYVSWYQHHPGKAPKVVLYDVTKRPSGVPDRFSGSKSGNTASLTISGLQAEDEADYYCCSYAGSYAGVFGTGTKVTVL
B14: S2H97, class 5 monoclonal antibody (antibody, V domains shown)
VH: QVRLVQSGAEVKKSGESLKISCKGSGYSFTSYWIGWVRQMPGKGLEWMGIIYPGDSDTRYSPSFQGQVTISADKSISTVYLQWSSLKASDTAMYYCARQWSHYTYDYYYWGQGTLVTISS
VL: QSVLTQPASVSGSPGQSITISCTGISSDVGGYNSVSWYQQHPGKAPKLMIYDVTNRPSGVSNRFSGSKSGNTASLTISGLQAEDEADYYCSSYTSSSTPPYVFGTGTKVSVL
B15: GAR15 (antibody, V domains shown)
VH: EVQLVESGGGLVQPGGSLRLSCAASGLTVSSNYMSWVRQAPGKGLEWVSVIYSGGSTFYADSVKGRFTISRHNSKNTLYLQMNSLRGDDTAVYYCARDLIYYGMDVWGQGTTVTVSS
VL: DIVMTQSPSSLSASVGDRVTITCRASQGISSSLAWYQQNPGKPPKLLIYAASTLQSGVPSRFSGSGSGTDFTLTISSLQPEDFATYYCQQLNSDLYTFGQGTKVEIK
B16: GAR14 (antibody, V domains shown)
VH: EVQLVESGGGLVQPGGSLRLSCAASGFTFSRYDMHWVRQTTGKGLEWVSAIGTAGDTYYPDSVKGRFTISRENAKNSLHLQMNSLRVGDTAVYFCARAVDCSDISCYSNWYFDLWGRGTLVTVSS
VL: DIQLTQSPSSLSASVGDRVTITCRASQTISSFLNWYQQKPGKAPHLLIYAASSLQSGVPSRFSGSGSGTDFTLTITNLQPEDFATYYCQQSYSTPPITFGQGTRLEIK
B17: GAR20 (antibody, V domains shown)
VH: QVQLQQWGAGLLKPSETLSLTCAVYGGSFSDFYWSWIRQPPGKGLEWIGQIDHSGSPNYNPSLKSRVTMSVDTSKNHFSLRLTSMTAADTAVYYCAKGPRYGSGSFDPLGQGTLVTVSS
VL: SYELTQPPSVSVAPGQTARITCGGDNIGSKTVHWYQQKPGQAPVLVVYDDGDRPSGIPERFSGSNPGNTATLTISRVEAGDEADYYCQVWDSSSDSVVFGGGTELTVL
B18: GAR09 (antibody, V domains shown)
VH: EVQLVESGGGLVQPGGSLRLSCAASGFTVSYNYMSWVRQAPGKGLEWVSLIYSGGSTYYADSVKGRFTISRDSSKNTLYLQMNSLRVEDTAVYYCAREVPSRSGWSGGQGTLVTVSS
VL: DIVMTQSPSSLSASVGDRVTITCQASQDMNKYLNWYQQKPGKAPKLLIYDASNLETGVPSRFSGSGSGTNFTFTISSLQPEDIATYYCQQYDNLPPVFGPGTKVEIK
B19: GAR03 Fab (Fab, V domains shown)
VH: QVQLVQSGAEVKKPGASVKVSCKASGYTFSSYDINWVRQAPGQGLEWMGWMSPNSGNTGYAQKFQGRVTMTRSTSMSTAYMELSSLRSEDTAVYFCARMSSSLTNYLDYWGQGTLVTVSS
VL: SYVLTQPPSVAVAPGQTARIRCGENDIGSKNVHWYQQKSGQAPVLVVYDDSDRPSGIPERFSGSNSGNTATLTISRVEAGDEADYYCQVWDSTGDHPDVVFGGGTKLTVL
notes: also called GAR03 antibody Fab; source: ExpiCHO, purified (Talon resin, S200 SEC)

What was measured:
[1] = target: T1, SARS-CoV-2 RBD (residues 319-541), ancestral strain (SARS-CoV-2, UniProt P0DTC2)
SARS-CoV-1 RBD = SARS-CoV-1 RBD (SARS-CoV (SARS-CoV-1), isolate not …, UniProt P59594)
bat RaTG12-CoV RBD = bat RaTG12-CoV RBD (Bat coronavirus RaTG13 (printed as …, UniProt A0ABF7PLN6))
[2] = target: T1, SARS-CoV-2 RBD (residues 319-541), …; test: BLI; details: both partners purified
[3] = target: T2, C-terminally His-tagged SARS-CoV-2 RBD (residues 333-528) (SARS-CoV-2, UniProt P0DTC2); test: crystal structure; details: both partners purified
T2 construct: source: expressed and purified as for the other RBDs (Expi293, Talon resin)

| Binder | binding result [1] | binding result (SARS-CoV-1 RBD) | binding result (bat RaTG12-CoV RBD) | also measured |
| --- | --- | --- | --- | --- |
| B1 | binds | – | – | – |
| B2 | binds | binds | binds | – |
| B3 | binds | – | – | – |
| B4 | – | – | – | Kd [2]: 0.54 nM |
| B5 | – | – | – | binding result [3]: binds |
| B6 | – | – | – | binding result [2]: binds |
| B7 | binds | binds | binds | – |
| B8 | – | – | – | binding result [3]: binds |
| B9 | binds | – | – | – |
| B10 | binds | binds | binds | – |
| B11 | binds | – | – | – |
| B12 | binds | binds | binds | – |
| B13 | binds | – | – | – |
| B14 | – | – | – | binding result [2]: binds |
| B15 | binds | – | – | – |
| B16 | binds | binds | binds | – |
| B17 | binds | binds | binds | – |
| B18 | binds | – | – | – |
| B19 | – | – | – | binding result [3]: binds |
